Tests used:
[1] = test system: CCl4 induced liver damage; experiment: Effect on CCl4 induced liver damage (plasma GPT level); type: in vivo; details: mouse plasma, 18 hours fasting after CCl4 (10% v/v in sesame oil, 10 ml/kg i.p.); tail vein injection; Free PGE1 0.065 mg/kg, polymer 1 mg/kg
Protocol: A solution of 10% (v/v) of CCl4 in sesame oil at dose of 10 ml/kg was administered into mouse abdominal cavity, and then drug (saline solution (Control), Free-PGE1 (Comparison), drug (PGE1)-containing polymer of the present invention PGE1-HZ-PLGA-HZ-Lac (reductive) (prepared in Example 6)) were injected into mouse through its tail vein at the setting dose. After the mouse had been fasted for 18 hours (25° C., water was freely given), blood was collected to assay GPT level (IU/L) in plasma.

[2] = Biodistribution of [3H]PGE1-containing polymer (Polymer P2) after tail vein injection; type: in vivo, mouse; details: i.v., 3H label; for percentage of concentration in 1 ml of plasma: mean±S.D.; for percentage of urinary excretion: Urine
Protocol: PLGA-HZ-Gal (prepared in Example 3) and PLGA-HZ-Lac (prepared in Example 5) were labeled with ^111In and were injected into mouse through its tail vein at dose of 1 mg/kg to analyze biodistribution of them. The results are shown in Tables 1 and 2 (Each value in Tables means the percentage of concentration in 1 ml of plasma, the percentage of amount of accumulation in each organ and the percentage of urinary excretion of the said PLGA derivatives (mean±S.D.), respectively at various times after administration.).
Biodistribution of [^3H]PGE1-HZ-PLGA-HZ-Gal (prepared in Example 4, degree of polymerization=97) and [^3H]PGE1-ED-PLGA-ED-Gal (Comparison: the polymer described in International J. Pharmaceutics, 155, 65-74 (1997), degree of polymerization=101) was analyzed by the same procedure as described in Experiment 1. The results are shown in Tables 3 (Invention) and 4 (Comparison) (Each value in Tables means the percentage of concentration in 1 ml of plasma, the percentage of amount of accumulation in each organ and the percentage of urinary excretion of the said [^3H]PGE1 derivatives (mean±S.D.), respectively at various times after administration.).

Molecule: CCCCCC(O)/C=C/C1C(O)CC(=O)C1CCCCCCC(=O)O (centres unmarked) [Free PGE1, PGE1, reference compound]
- GPT level [1]: 660.89 ± 218.28 IU/L

Molecule: PGE1-HZ-PLGA-HZ-Lac (Reductive/degree of Polymerization: d^3=0, x^3=35, y^3=36, z^3=22, w^3=4)
- GPT level [1]: 239.12 ± 77.482 IU/L

Molecule: [^3H]PGE1-HZ-PLGA-HZ-Gal (Degree of Polymerization: d^3=0, x^3=29, y^3=32, z^3=31, w^3=5) [[^3H]-PGE1-HZ-PLGA-HZ-Gal]
- percentage of amount of accumulation in organ ([2]; Kidney, 1 min.): 1.26 ± 0.23%
- percentage of amount of accumulation in organ ([2]; Kidney, 5 min.): 1.23 ± 0.06%
- percentage of amount of accumulation in organ ([2]; Kidney, 10 min.): 0.79 ± 0.14%
- percentage of amount of accumulation in organ ([2]; Kidney, 60 min.): 0.64 ± 0.22%
- percentage of amount of accumulation in organ ([2]; Liver, 1 min.): 54.42 ± 0.79%
- percentage of amount of accumulation in organ ([2]; Liver, 5 min.): 70.39 ± 3.51%
- percentage of amount of accumulation in organ ([2]; Liver, 10 min.): 80.54 ± 9.52%
- percentage of amount of accumulation in organ ([2]; Liver, 60 min. (1 hour)): 85.43 ± 3.78%
- percentage of amount of accumulation in organ ([2]; Lung, 1 min.): 1.88 ± 0.46%
- percentage of amount of accumulation in organ ([2]; Lung, 5 min.): 1.64 ± 0.56%
- percentage of amount of accumulation in organ ([2]; Lung, 10 min.): 1.00 ± 0.21%
- percentage of amount of accumulation in organ ([2]; Lung, 60 min.): 0.44 ± 0.18%
- percentage of concentration in 1 ml of plasma ([2]; 1 min. after administration): 14.33 ± 0.75%
- percentage of concentration in 1 ml of plasma ([2]; 5 min. after administration): 1.64 ± 0.51%
- percentage of concentration in 1 ml of plasma ([2]; 10 min. after administration): 0.40 ± 0.06%
- percentage of concentration in 1 ml of plasma ([2]; 60 min. after administration): 0.26 ± 0.07%
- percentage of amount of accumulation in organ ([2]; Spleen, 1 min.): 1.11 ± 0.14%
- percentage of amount of accumulation in organ ([2]; Spleen, 5 min.): 1.85 ± 0.10%
- percentage of amount of accumulation in organ ([2]; Spleen, 10 min.): 1.24 ± 0.17%
- percentage of amount of accumulation in organ ([2]; Spleen, 60 min.): 1.84 ± 0.16%
- percentage of urinary excretion ([2]; 1 min.): 0.00 ± 0.00%
- percentage of urinary excretion ([2]; 5 min.): 1.17 ± 1.01%
- percentage of urinary excretion ([2]; 10 min.): 1.79 ± 0.25%
- percentage of urinary excretion ([2]; 60 min.): 1.45 ± 0.83%
